Results taken from the nanobody polyreactivity screen of Harvey et al. (2022).

assay: yeast display, Sf9 membrane polyspecificity reagent, FACS + sequencing; frameworks hold sequencing errors
Method in brief: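 Genes from sorted yeast were amplified by colony PCR, read by MiSeq 2 × 250 sequencing and filtered on CDR length. These cells carried a synthetic nanobody library in Saccharomyces cerevisiae BJ5465 and were sorted by FACS into low and high (top ~1%) gates on anti-HA and streptavidin fluorescence. Polyreactivity is labelled according to the gate of origin.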

Sequence	polyreactivity (PSR sort gate)
QVQLVESGGGLVQAGGSLRLSCAASGSIFSNYAMGWYRQAPGKERELVAAISRSGGSTRYADSVKGRFTISRDNAKNTVYLQMNSLKPEDTAVYYCNAVRYPRLMYYWGQGTQVTVSS	high polyreactivity
QVQLVESGGGLVQAGGSLRLSCAASGSIFSPNAMGWYRQAPGKERELVASITNGGSTYYADSVKGRFTISRDNAKNTVYLQMNSLKPEDTAVYYCAADHNETGLRVKVYEYDYWGQGTQVTVSS	low polyreactivity
QVQLVESGGGLVQAGGSLRLSCAASGSIFSPYAMGWYRQAPGKERELVAAIRWGGGCTYADSVKGRFTISRDNAKNTVYLQMNSVIPEDSAVYYCAARRRSLRGYDYWGQGTQVTVSS	high polyreactivity
QVQLVESGGGLVQAGGSLRLSCAASGSIFSPYAMGWYRQAPGKQRELVAAISKTGGSTYYADSVKGRFTISRDNAKNTVYLQMNSLKPEDTAVYYCATQGPRWVRHFDYWGQGTQVTVSS	low polyreactivity
QVQLVESGGGLVQAGGSLRLSCAASGSIFSRNAMGWYRQAPGKERELVAAISYSSGSTYYADSVKGRFTLSRDNAKNTVYLQMNSLKPEDTAVYYCAADTTKLQGAEVDFWGQGTQVTVSS	low polyreactivity
QVQLVESGGGLVQAGGSLRLSCAASGSIFSRNDMGWYRLAPGKERELVAAITSDDTSTYYADSVNGRFTISRDNAKNTVYLQMNSLKPEDTAVYYCAADYGNPFDYWGQGTQVTVSS	low polyreactivity
QVQLVESGGGLVQAGGSLRLSCAASGSIFSRYAMGWYRQAPAKERELVAASSSRGGSTYYADSVKGRFTISRDNAKNTVYLQMNSLKTEDTAVYYCAAQAPDTPSLDEGDFWGQGTQVTVSS	high polyreactivity
QVQLVESGGGLVQAGGSLRLSCAASGSIFSRYAMGWYRQAPGKERELVAAINGRGSRTYYADSVKGRFTISRDNAKNTVYLQMNSLKPEDTAVYYCAAGRSRLYGPRYFIYKYNYWGQGTQVTVSS	high polyreactivity
QVQLVESGGGLVQAGGSLRLSCAASGSIFSRYAMGWYRQAPGKERELVAAISQRAGSTYYADSVKGRFTISRDNAKNTVYLQMNSLKPEDTAVYYCAARRRGRKERGEDYWGQGTQVTVSS	high polyreactivity
QVQLVESGGGLVQAGGSLRLSCAASGSIFSRYAMGWYRQAPGKERELVAAISRGGSTNYADSVKGRFTISRDNAMNTVYLQMNSLKPEDTAVYYCAADGGKNPVRYDYWGQGTQVTVSS	high polyreactivity
QVQLVESGGGLVQAGGSLRLSCAASGSIFSRYAMGWYRQAPGKERELVAAISWRGGSTYYADSVKGRFTISRDNAKNTVYLQMTSLKPEDTAVYYCAAVYRGGPYYYWGQGTQVTVSS	high polyreactivity
QVQLVESGGGLVQAGGSLRLSCAASGSIFSRYAMGWYRQAPGKERELVAGISRGSSTYYADSVKGRFTISRDNAKNTVYLQMNSLKPEDTAVYYCARSGGSGGYYYWGQGTQVTVSS	low polyreactivity
QVQLVESGGGLVQAGGSLRLSCAASGSIFSRYAMGWYSQAPGKELELVAAISWRGGSTYYADSVKGRFTISRDNAKNTVYLQMNSLKPEDTAVYYCAVRDYRPYSRFDFWGQGTQVTVSS	high polyreactivity
QVQLVESGGGLVQAGGSLRLSCAASGSIFSRYTLGWYRQAPGKVRELVARINSSGTSTYYADSLKGRFTISRDKAKNTVYLQMNSLKPEDTAVYYCARTSRHVRYDYWGQGTQVTVSS	low polyreactivity
QVQLVESGGGLVQAGGSLRLSCAASGSIFSSNAMGWYRQAPGKERELGAAISRSACSTYYADSVKGRFTISRDNAKNTVYLQMNSLKPEDTAVYYCNAVTRLGTYDYWGQGTQVTVSS	high polyreactivity
QVQLVESGGGLVQAGGSLRLSCAASGSIFSSNAMGWYRQAPGKERELVASIDGGPTTYADSVKGRFTISRDNAKNTVYLQMNSLKPEDTAVYFCKAVYAFNGYDYWGQGTQVTVSS	low polyreactivity
QVQLVESGGGLVQAGGSLRLSCAASGSIFSSNAMGWYRQAPGKERELVASIRRGGSTYYADSVKGRFTISRDNAMNTVYLQMNSLKPEDTAVYDCARRYVPWYATYDHWGQGTQVTVSS	high polyreactivity
QVQLVESGGGLVQAGGSLRLSCAASGSIFSSNTMGWYRQAPGKERELVAAITSGGGTYYADSVKGRFTISRDNAKNTVYLQMNSLKPEDTAVYYCAAQRDYKSSPSYDYWGQGTQVNVSS	low polyreactivity
QVQLVESGGGLVQAGGSLRLSCAASGSIFSSYALGWYRQAPGKERELVAAISQSGGDTYYADSVKGRFTISRDNAKNTVYLQMNSLKPEDTAVYYCAADWAYYVASYLYYTFDYWGQGTQVTVSS	low polyreactivity
QVQLVESGGGLVQAGGSLRLSCAASGSIFSSYAMGWYRQAPGKERELVAGISRRGGSTYYADSVKGRFTISRDNAKNTVYLLMNSLKPEDTAVYYCNARYAGSDLDYWGQGTQVTVSS	high polyreactivity
QVQLVESGGGLVQAGGSLRLSCAASGSIFSSYAMGWYRQAPGKERELVAVITSGDSTNYADSVKGRFTISRDNAKNTVYLQMNSLKPEDTAVYYCNADSYGGSDRYDYWGQGTQVTVSS	low polyreactivity

Sequence	polyreactivity (PSR sort gate)
QVQLVESGGGLVQAGGSLRLSCAASGSIFSTNAMGWYRQAPGKERELVAAITYSGSLTYYADSVKGRFTISRDNAKNTVYLQMNSLKPEDTAVYYCAADTSWYSWWFDYWGQGTQVTVSS	low polyreactivity
QVQLVESGGGLVQAGGSLRLSCAASGSIFSTYAMGGYRQAPGKERELVAAIRDSGDRTYYADSVKGRFTISRDNAKNTVYLQMNSLKPDDTAVYYCYARWQEPLKYDYWGQGTPVTVSS	low polyreactivity
QVQLVESGGGLVQAGGSLRLSCAASGSIFSTYAMGWYRQAPGKERELVAAISSSGSTYYADSVKGRFTLSRDNAKNTVYLQMNSLKPEDTAVYYCAAGKYRRTSRYRYDSWGQGTQVTVSS	high polyreactivity
QVQLVESGGGLVQAGGSLRLSCAASGSIFSVNAMGWYRQAPGKERELVAGITISGGRTYYADSVKGRFTISRDNAKNTVYLEMNSLKPEDTAVYYCAADWVYPPGLKDSVHFGEYDYWGQGTQVTVSS	low polyreactivity
QVQLVESGGGLVQAGGSLRLSCAASGSIFSVNTKGWYRQAPGKERELVATIRTGDSTNYADSVKGLFTISRDNAKNTVYLQMNSLKPEDTAFYYCAAEWSSLNFDYWGQGTQVTVSS	low polyreactivity
QVQLVESGGGLVQAGGSLRLSCAASGSIFSVYAMGWYRPAPGKERELVASITNDGSTNYADSVKGRFTISRDNAKNTVYLQMNSLKPEDTAVYYCNADSYTKLDYWGQGTQVTVSS	low polyreactivity
QVQLVESGGGLVQAGGSLRLSCAASGSIFSVYAMGWYRQAPGKERELVATITWSGGRTYYADSVKGRFTISRDNAKNTVYLQMNSLKPEDTAVYYCAATSWWATTGFDYWGQGTQVTVSS	low polyreactivity
QVQLVESGGGLVQAGGSLRLSCAASGSIFSVYAMGWYRQAPGKERELVATITWSGGRTYYADSVKGRYTISRDNAKNTVYLQMNSLKPEDTAVYYCAATSWWATTGFDYWGQGTQVTVSS	low polyreactivity
QVQLVESGGGLVQAGGSLRLSCAASGSIFSWYAMGWYRQAPGKERELVAAISSRGGSTYYADSVKGRFTISRDNAKNTVYLQMNSLKPEDTAVYYCNTTYGYSTYWASGKYDYWGQGTQVTVSS	low polyreactivity
QVQLVESGGGLVQAGGSLRLSCAASGSIFSYYALGWYRQAPGKERELVAAISYSGGTTYYADSVKGRFTISRDNAKNTVYLQMNSLKPEDTAVYYCAAQWWWNRPVRYEYWGQGTQVTVSS	low polyreactivity
QVQLVESGGGLVQAGGSLRLSCAASGSIFSYYAMGWSRQAPGKERELVAAISRSGTSTYYADSVKGRFTISRDNAKNTVSLQMNSLKPEVNAVDYCNARWGFSRHRLMGYWGQGTQVSVSS	high polyreactivity
QVQLVESGGGLVQAGGSLRLSCAASGSIFSYYAMGWYRQAPGKERELVAAISKRGASTYYADSVKGRFTISRDNAKNTVYLQMNSLKPEDTAVYYCAARPYGGGRRSIYYYWGQGTQVTVSS	high polyreactivity
QVQLVESGGGLVQAGGSLRLSCAASGSIFSYYAMGWYRQAPGKERELVAAISKRGASTYYADSVKGRFTISRDNAKNTVYLQMNSLKPEDTAVYYCNRVLYDHSFPYNRGYDYWGQGTQVTVSS	high polyreactivity
QVQLVESGGGLVQAGGSLRLSCAASGSIFSYYAMGWYRQAPGKERELVAAISYSGSDTYYADSVKGRFTISRDNAKNTVSFQMNSLKPEDTAVYYCAAEDPSYSYHYWGQGTQVTVSS	low polyreactivity
QVQLVESGGGLVQAGGSLRLSCAASGSIFSYYAMGWYRQAPGKERELVAAITRSGSKNYADSVKGRFTISRDNAKNTVYLQMNSLKPEDTAVYYCAAETDESDWYYYWGQGTQVTVSS	high polyreactivity
QVQLVESGGGLVQAGGSLRLSCAASGSIFSYYAMGWYRQAPGKERELVAAITVRGGSTYYADSVKGRFTISRDNAKNTVYLQMNSLKPEDTAVYYCAADWLDESFSYGPYYYWGQGTQVTVSS	low polyreactivity
QVQLVESGGGLVQAGGSLRLSCAASGSIFSYYAMGWYRQAPGKERELVAGISISTGSTYYADSVKGRFTISRDNAKNTVYLQMNSLIPEDTAVYYCNASALDPLYAKDDYWGQGTQVTVSS	low polyreactivity
QVQLVESGGGLVQAGGSLRLSCAASGSIFSYYAMGWYRQAPGKERELVARITRGGDGTYYADSVKGRFTISRDNAKNTDYLQMNSLKPEDTAVYYCARRQVLYTRDFEYDYWGQGTQVTVSS	low polyreactivity
QVQLVESGGGLVQAGGSLRLSCAASGSIFSYYAMGWYRQAPGKERELVASISWNGTSTYYADSVKGRFTISRDNAKNTVDLQMNSLKPEDTADYYCNVRFNYRGTYDYWGQGTQVTVSS	low polyreactivity
QVQLVESGGGLVQAGGSLRLSCAASGSIFSYYAMGWYRQATAKERDLVAAISTSCGNTYYADSVKGRFTISRDNPKNRVYVQMNSLKPEDTAVYYCAAENVWAWFYGYDYWGQGTQVTVSS	high polyreactivity
